1 molecule from article PMC10609148 (Molecules, 2023) can be followed below.

Holding throughout (details): both partners purified
Assay [1] has as its target T1, Human Aβ(1–42)-HiLyte^TM-Fluor555 (human, UniProt P05067 672-713, HiLyte^TM-Fluor555 dye covalently bound to ASP1 (NH2-terminus amino acid)).
T1 construct: Amyloid β peptide Aβ(1–42), human, cut product of the amyloid precursor protein; numbers count on: the Aβ peptide; source: bought: AnaSpec
Nature of the assay: other fluorescence titration; His6 added to 10 nM Aβ(1–42) HiLyte-Fluor555 in solution; increase in dye fluorescence (ex 520 nm, em 567 nm) at the end of the kinetics (2000 s); 50 mM HEPES, 100 mM KCl, 50 µM CaCl2, pH 7.05, 24–25 °C.

Assay [2] concerns the target T1, Human Aβ(1–42)-HiLyte^TM-Fluor555. Nature of the assay: other fluorescence titration; competition: 10 nM Aβ(1–42) HiLyte-Fluor555 preincubated 15 min with rising His6, then 5 nM calbindin-D28k added; attenuation of the maximum fluorescence increase; 50 mM HEPES, 100 mM KCl, 50 µM CaCl2, pH 7.05, 24–25 °C.
For assay [3] the target is unchanged. Nature of the assay: other fluorescence titration; competition: 10 nM Aβ(1–42) HiLyte-Fluor555 preincubated 15 min with rising His6, then 5 nM CaM added; attenuation of the maximum fluorescence increase; 50 mM HEPES, 100 mM KCl, 50 µM CaCl2, pH 7.05, 24–25 °C.

One may read the EC50 as the midpoint of the concentration-response curve. A word on the IC50: it is the concentration that gives 50% inhibition. Low values mean greater potency, high ones weaker potency.

B1: hexa-histidine peptide (His6) (peptide)
peptide: HHHHHH
notes: hexa-histidine; source: bought: Quimigen
In assay [1], B1 showed an EC50 of 50 to 60 nM. Besides, the IC50 was ~100 nM in assay [2] and ~1000 nM in assay [3].
